According to patent US7928289B2, “Method for production of transgenic plants with increased pathogenic resistance by altering the content and/or activity of actin-depolymerising factors” (BASF Plant Science GmbH, priority 2004, dated 2011):

What was measured:
actin cytoskeleton = experiment: Phalloidine staining of the actin cytoskeleton in transfected epidermal leaf cells; format: cell-based, Hordeum vulgare; conditions: BCIngridmlo5; cells labeled with dsRED
Source text: For this experiment, epidermal leaf cells from barley were transfected with a plasmid expressing dsRED (RFP) in order to label the transfected cells. In addition in some experiments, a constitutively active variant of HvADF3 bearing an S^6A amino acid substitution rendering the protein inaccessible for N-terminal phosphorylation was expressed. A corresponding mutant was described for ADF3 from maize (Smertenko et al., Plant J 14, 187-193).
As described in the above, said vectors were then used for transfecting the plants.
The dsRED vector (pUbi-RFP-Nos, FIG. 4) has a maize polyubiquitin promoter (pUbi), the coding gene for the red fluorescent protein (Discosoma sp. fluorescent protein FP583; RFP), and a nopaline synthase transcription termination sequence (NOS). The GenBank accession number for RFP is AF168419.
The experiments were conducted in BCIngridmlo5.

peroxisomes = experiment: Movement of GFP-labeled peroxisomes in transfected epidermal leaf cells; format: cell-based, Hordeum vulgare; conditions: epidermal leaf cells from barley; co-expression with GFP having peroxisomal targeting sequence
Source text: In order to further examine the HvADF3 function in barley, the effect of the overexpression or the silencing of HvADF3 on the mobility of peroxisomes was examined. Peroxisomes are known to be moved along actin filaments (Mathur (2002) Plant Physiology, Vol. 128, 1031-1045). Herein, barley peroxisomes were visualized by co-transformation of a plasmid expressing a variant of the Green Fluorescent Protein (GFP) with a peroxisomal targeting sequence (Mathur et al., vide supra). Herein, epidermal leaf cells from barley were transfected either only with the GFP construct or together with the already mentioned mutant of HvADF3 (S^6A). The expression of said mutant corresponds to an increase of the content and the activity of ADF3.
With the aid of the PCR method, a so-called peroxisome target sequence (PTS) was fused C-terminally to the green fluorescent protein. Said sequence consists of the three amino acids serine (S), […], and leucine (L) (Jedd, G. et al. (2002) Plant Cell Physiol 43, 384-392).
The GFP peroxisome target sequence vector (pGFPTS, FIG. 6) has a maize polyubiquitin promoter (pUbi), the coding gene for the green fluorescent protein including the peroxisome target sequence (GFPTS), and a nopaline synthase transcription terminator sequence (NOS).
The overexpression of HvADF3 was performed as described in the above. […]

[1] = test system: Blumeria graminis f. sp. hordei (Bgh); experiment: Fungal development on epidermal leaf cells co-transfected with GUS reporter and HvADF3(S^6A); format: cell-based, Hordeum vulgare; conditions: BCIngridmlo5; Bgh conidia four hours after bombardment
Description: Therefore, those cells were examined, which had been transfected with HvADF3 overexpression constructs.
For said experiments, epidermal leaf cells from barley were co-transfected with a plasmid for the GUS reporter together with a plasmid coding for HvADF3(S^6A), as was described in the above. Four hours after bombardment, the leaves were infected with Bgh conidia, and 22 hours after inoculation the leaves were stained with respect to GUS activity and fungal structures. FIGS. 8a and b show the fungal development in a transfected epidermal leaf cell. […] The expression of HvADF3(S^6A) corresponds to an overexpression of HvADF3. The experiments were performed in BCIngridmlo5 plants.

Peronospora parasitica = experiment: Infection of transgenic Arabidopsis plants with Peronospora parasitica; format: in vivo, Arabidopsis thaliana; conditions: constitutive or pathogen-inducible expression
Description: (§1) The transformation is conducted according to the floral dip method (modified according to Clough and Bent, 1998). After being harvested, the seeds are sterilized with chlorine gas overnight and subsequently laid out on selection plates. The addition of antibiotics is conducted in dependency on the plant resistance marker. In case of pSUN2, BASTA is added; in case of Lo123, kanamycin is added. After sterilization, the seeds are laid out on the selection plates and are stored for stratification for two days at 4° C. in a cooling chamber. Subsequently, they are further observed under short-day conditions. After about 10 days, the first selection of the plants can be performed. Non-transgenic plants will lose color during selection, while transgenic plants having the corresponding resistance gene remain green. Those plants remaining green after the first selection are selected a second time under same conditions. Those plants still maintaining their color during the second selection can then be transferred to soil. The plants are selfed and the resulting T2 seed populations are subjected to phytopathological analysis. […]
5 to 8-week-old plants are sprayed with a conidia spore suspension (about 10^6 spores/ml). […] These symptoms are quantified and tested for significance.

Erysiphe cichoracearum = experiment: Infection of transgenic Arabidopsis plants with Erysiphe cichoracearum; format: in vivo, Arabidopsis thaliana; conditions: constitutive or pathogen-inducible expression
Description: as §1
The biotrophic mildew fungus is cultivated on Arabidopsis thaliana plants. […] These symptoms are quantified and tested for significance.

B1: HvADF3 (S^6A): Constitutively active variant of barley ADF3 (SEQ ID No. 2) with S6A substitution, overexpressed from vector pHvADF3-CA (protein)
chain: MANASAGAGIHDDCKLRFVELKSKRMHRFITYRLENQKEVIVDQTGQRDATYEDFTKTLPENDCRFAVFDFDFTTPEDVPKSRIFYIFWSPDTAKVRSKMTYASNEKFKRTLDGIQIEMQATDPSEISLDVIKERAH
modifications: Hordeum vulgare
phalloidine-stainable actin fibers in bombarded cells (actin cytoskeleton): stainable actin fibers could only be detected in the neighboring cells, but not in the bombarded cells
peroxisomal movement (peroxisomes): considerably reduced
fungal development in transfected cells [1]: the fungus can only form very short hyphae

B2: AtADF3: ADF3 from Arabidopsis thaliana (SEQ ID No. 11), expressed constitutively (pSUN2) or pathogen-inducibly (Lo123) in transgenic Arabidopsis plants (protein, listed as Arabidopsis thaliana)
chain: MANAASGMAVHDDCKLKFMELKTKRTHRFIIYKIEELQKQVIVEKIGEPGQTHEDLAASLPADECRYAIFDFDFVSSEGVPRSRIFFVAWSPDTARVRSKMIYASSKDRFKRELDGIQVELQATDPTEMDLDVFKSRAN
resistance to Peronospora parasitica as compared to non-transgenic wild-type plants (Peronospora parasitica): significantly increased resistance
resistance to Erysiphe cichoracearum as compared to non-transgenic wild-type plants (Erysiphe cichoracearum): significantly increased resistance
